Laboratory results: article PMC4682845 (2015)

Target: […]-para-nitroanilide (TQ6-pNA) peptide substrate
Test: ITC

B1: MERS-CoV main protease (M^pro), wild type, authentic N-terminus (enzyme)
chain: SGLVKMSHPSGDVEACMVQVTCGSMTLNGLWLDNTVWCPRHVMCPADQLSDPNYDALLISMTNHSFSVQKHIGAPANLRVVGHAMQGTLLKLTVDVANPSTPAYTFTTVKPGAAFSVLACYNGRPTGTFTVVMRPNYTIKGSFLCGSCGSVGYTKEGSVINFCYMHQMELANGTHTGSAFDGTMYGAFMDKQVHQVQLTDKYCSVNVVAWLYAAILNGCAWFVKPNRTSVVSFNEWALANQFTEFVGTQSVDMLAVKTGVAIEQLLYAIQQLYTGFQGKQILGSTMLEDEFTPEDVNMQIMGVVMQ
B1 gave a Kd of 20.3 µM.
